Measured values as given in patent US20110230643A1.

Target: Toll-like receptor 5 (TLR5), constitutively expressed on Caco-2 cells (UniProt O60602)
Experiment: cell-based or functional assay

Sequence of UniProt O60602 (O60602 21-858 limits assumed): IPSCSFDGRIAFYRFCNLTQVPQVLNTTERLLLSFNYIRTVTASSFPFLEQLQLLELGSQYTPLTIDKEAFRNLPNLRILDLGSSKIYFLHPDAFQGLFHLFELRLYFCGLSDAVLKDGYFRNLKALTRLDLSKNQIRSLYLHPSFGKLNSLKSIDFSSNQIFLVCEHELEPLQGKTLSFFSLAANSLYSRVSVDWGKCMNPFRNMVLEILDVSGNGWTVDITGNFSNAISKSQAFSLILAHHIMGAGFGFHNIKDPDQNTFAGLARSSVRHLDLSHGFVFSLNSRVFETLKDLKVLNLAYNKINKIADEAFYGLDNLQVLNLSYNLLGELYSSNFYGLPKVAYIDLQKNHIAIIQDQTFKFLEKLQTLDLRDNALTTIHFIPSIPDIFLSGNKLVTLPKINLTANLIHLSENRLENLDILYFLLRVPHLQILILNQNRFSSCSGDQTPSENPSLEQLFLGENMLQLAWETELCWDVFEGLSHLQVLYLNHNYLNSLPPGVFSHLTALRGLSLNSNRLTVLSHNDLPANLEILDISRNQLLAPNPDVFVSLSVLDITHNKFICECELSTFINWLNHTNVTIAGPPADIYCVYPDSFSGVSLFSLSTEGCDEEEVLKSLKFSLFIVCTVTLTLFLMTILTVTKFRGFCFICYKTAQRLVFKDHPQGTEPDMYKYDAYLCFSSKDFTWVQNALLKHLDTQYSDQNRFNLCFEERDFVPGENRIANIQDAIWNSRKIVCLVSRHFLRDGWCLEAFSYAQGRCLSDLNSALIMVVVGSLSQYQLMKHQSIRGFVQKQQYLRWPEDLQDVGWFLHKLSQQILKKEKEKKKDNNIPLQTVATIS

flagellin protein FliC from Salmonella enterica J341, recombinant, with C-terminal 6-histidine tag (from UniProt P06177 1-505) (ligand)
dose at which the stimulating activity (IL-8 and MCP-1 release of Caco-2 cells) reached saturation: > 1000 ng/mL
